Reference: patent US10287344B2, “Methods for reducing global chronic inflammation and the presence of melanoma” (Mayo Foundation for Medical Education and Research, priority 2008, dated 2019)

Tested on: PBMC from healthy donors
Assay: VEGF mediated Th1/Th2 polarity: PBMC stimulated 3 days with CD3/CD28 expander beads, intracellular IFN-γ/IL-4 in CD4+ T-cells
Type: cell-based, human
Conditions: 10 μg/mL IL-12 added to culture containing 16 pg/mL of VEGF
Experimental: PBMC (A) isolated from healthy donors were stimulated with PMA and ionomycin in the presence of brefeldin-A, permeabolized, and intracellularly stained for human IFN-γ (FITC) and human IL-4 (PE). PBMC were exposed to increasing concentrations of VEGF ([…]) without/with IL-12. All cells were immunostained with PC5 anti-human CD4. Purified CD4+ T-cells (B) were negatively isolated using Miltenyi beads, cultured, and stained in the same fashion as PBMC (A).
To determine the effect of VEGF on Th1 and Th2 polarity, PBMC from healthy donors were stimulated for 3 days with CD3/CD28 expander beads (Invitrogen Oslo, Norway) with and without increasing doses of recombinant VEGF (1-16 pg/mL). Cells were also cultured with 10 μg/mL recombinant human IL-12 (R and D Systems, Minneapolis, Minn.) or 8 μg/mL of a monoclonal anti-human IL-12 (R and D Systems Minneapolis, Minn. clone #24910). […]
In addition, healthy donor PBMC were stimulated with CD3^+/CD28^+ expander micro-beads for 3 days with increasing concentrations (1 pg/mL-16 pg/mL) of recombinant VEGF and assessed intracellular cytokine production of IL-4 (Th2 cytokine) and IFN-γ (Th1 cytokine) in CD4^+ T-cells at the end of in vitro culture (FIG. 8a).

B1: IL-12: recombinant human IL-12 (R and D Systems) (protein, UniProt P29459 23-219; P29460 23-328, looked up)
Interleukin-12 subunit alpha: RNLPVATPDPGMFPCLHHSQNLLRAVSNMLQKARQTLEFYPCTSEEIDHEDITKDKTSTVEACLPLELTKNESCLNSRETSFITNGSCLASRKTSFMMALCLSSIYEDLKMYQVEFKTMNAKLLMDPKRQIFLDQNMLAVIDELMQALNFNSETVPQKSSLEEPDFYKTKIKLCILLHAFRIRAVTIDRVMSYLNAS
Interleukin-12 subunit beta: IWELKKDVYVVELDWYPDAPGEMVVLTCDTPEEDGITWTLDQSSEVLGSGKTLTIQVKEFGDAGQYTCHKGGEVLSHSLLLLHKKEDGIWSTDILKDQKEPKNKTFLRCEAKNYSGRFTCWWLTTISTDLTFSVKSSRGSSDPQGVTCGAATLSAERVRGDNKEYEYSVECQEDSACPAAEESLPIEVMVDAVHKLKYENYTSSFFIRDIIKPDPPKNLQLKPLKNSRQVEVSWEYPDTWSTPHSYFSLTFCVQVQGKSKREKKDRVFTDKTSATVICRKNASISVRAQDRYYSSSWSEWASVPCS
shift in T-helper polarity in culture containing VEGF: prevented the shift in T-helper polarity from Th1 to Th2
